A value given as a limit tells only on which side of the number the result lay.

Assay [1] concerns the target T1, betaglycan on primary rat pituitary cells (rat) (UniProt P26342).
T1 sequence (looked up): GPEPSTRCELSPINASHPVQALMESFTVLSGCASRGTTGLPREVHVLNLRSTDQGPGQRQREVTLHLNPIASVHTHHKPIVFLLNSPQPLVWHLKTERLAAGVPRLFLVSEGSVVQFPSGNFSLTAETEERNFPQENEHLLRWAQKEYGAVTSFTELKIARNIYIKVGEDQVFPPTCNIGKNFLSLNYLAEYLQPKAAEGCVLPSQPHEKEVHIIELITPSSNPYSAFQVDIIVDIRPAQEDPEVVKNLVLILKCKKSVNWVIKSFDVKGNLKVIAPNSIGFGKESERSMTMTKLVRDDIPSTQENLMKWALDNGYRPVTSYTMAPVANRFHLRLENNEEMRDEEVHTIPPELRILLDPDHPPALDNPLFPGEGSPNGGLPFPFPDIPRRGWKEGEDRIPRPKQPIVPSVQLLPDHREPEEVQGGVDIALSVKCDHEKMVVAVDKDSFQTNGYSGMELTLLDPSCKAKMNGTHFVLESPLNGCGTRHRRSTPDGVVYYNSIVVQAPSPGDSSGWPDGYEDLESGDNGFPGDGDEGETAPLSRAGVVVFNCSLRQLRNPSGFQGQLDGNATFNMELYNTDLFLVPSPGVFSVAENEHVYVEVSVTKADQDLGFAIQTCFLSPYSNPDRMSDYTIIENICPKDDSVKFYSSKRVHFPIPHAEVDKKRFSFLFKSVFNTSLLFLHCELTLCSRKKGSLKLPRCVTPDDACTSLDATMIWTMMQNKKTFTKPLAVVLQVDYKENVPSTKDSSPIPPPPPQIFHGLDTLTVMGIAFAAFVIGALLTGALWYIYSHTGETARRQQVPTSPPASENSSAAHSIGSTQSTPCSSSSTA
Kind of assay: cell-based or functional assay.

Assay [2] has as its target T2, betaglycan on LβT2 mouse pituitary gonadotrope cells (mouse) (UniProt O88393).
T2 sequence (looked up): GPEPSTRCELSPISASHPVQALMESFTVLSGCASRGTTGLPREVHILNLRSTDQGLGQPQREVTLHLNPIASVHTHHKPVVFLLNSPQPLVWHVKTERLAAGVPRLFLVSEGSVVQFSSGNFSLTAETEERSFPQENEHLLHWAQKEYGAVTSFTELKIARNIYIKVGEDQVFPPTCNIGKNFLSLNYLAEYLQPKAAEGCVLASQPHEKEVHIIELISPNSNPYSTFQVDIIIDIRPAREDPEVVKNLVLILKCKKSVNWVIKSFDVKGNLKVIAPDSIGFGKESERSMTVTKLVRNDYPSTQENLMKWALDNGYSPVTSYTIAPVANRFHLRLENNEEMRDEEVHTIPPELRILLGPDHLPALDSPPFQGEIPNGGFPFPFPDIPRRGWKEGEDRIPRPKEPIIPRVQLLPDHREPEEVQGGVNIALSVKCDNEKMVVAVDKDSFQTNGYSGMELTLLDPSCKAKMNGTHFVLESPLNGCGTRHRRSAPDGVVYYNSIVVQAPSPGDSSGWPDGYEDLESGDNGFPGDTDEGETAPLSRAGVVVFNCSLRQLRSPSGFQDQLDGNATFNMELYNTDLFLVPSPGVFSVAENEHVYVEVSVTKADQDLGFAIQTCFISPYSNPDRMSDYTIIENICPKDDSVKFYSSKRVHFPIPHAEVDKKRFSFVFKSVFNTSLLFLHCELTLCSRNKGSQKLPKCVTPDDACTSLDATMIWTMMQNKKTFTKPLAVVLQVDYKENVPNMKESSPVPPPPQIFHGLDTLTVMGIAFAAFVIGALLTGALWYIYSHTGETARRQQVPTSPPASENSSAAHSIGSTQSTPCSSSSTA
Kind of assay: cell-based or functional assay.

A further assay addresses T3, type I receptor (ALK4) (UniProt P36896).
T3 sequence (looked up): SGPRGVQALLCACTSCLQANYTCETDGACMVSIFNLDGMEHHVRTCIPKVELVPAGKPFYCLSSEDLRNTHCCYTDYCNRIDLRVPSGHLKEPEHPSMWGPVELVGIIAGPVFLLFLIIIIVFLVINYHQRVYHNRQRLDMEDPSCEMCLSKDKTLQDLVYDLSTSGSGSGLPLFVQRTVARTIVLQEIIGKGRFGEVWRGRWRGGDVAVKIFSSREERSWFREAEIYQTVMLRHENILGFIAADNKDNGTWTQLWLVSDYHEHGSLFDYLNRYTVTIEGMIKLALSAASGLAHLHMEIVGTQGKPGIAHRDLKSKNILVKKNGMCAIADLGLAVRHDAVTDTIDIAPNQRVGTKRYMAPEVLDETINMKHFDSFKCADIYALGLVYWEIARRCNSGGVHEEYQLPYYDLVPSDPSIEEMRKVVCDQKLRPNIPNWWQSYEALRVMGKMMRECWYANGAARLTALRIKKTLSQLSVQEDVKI
Kind of assay: cell-based or functional assay.

The target in assay [3] is T4, HIS-tagged inhibin α-subunit prodomain (human) (UniProt P05111).
T4 sequence: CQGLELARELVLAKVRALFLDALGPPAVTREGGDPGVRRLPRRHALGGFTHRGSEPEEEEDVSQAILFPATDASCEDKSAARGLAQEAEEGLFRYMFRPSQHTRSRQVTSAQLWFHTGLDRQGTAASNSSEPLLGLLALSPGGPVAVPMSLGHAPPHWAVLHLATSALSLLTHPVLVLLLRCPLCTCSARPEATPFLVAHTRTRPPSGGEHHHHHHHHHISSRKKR
Kind of assay: IMAC (Ni-NTA) co-purification from HEK293T conditioned medium; Western blot and ELISA.

B1: Pro-inhibin A (M418A) (ligand)
chain 1: CQGLELARELVLAKVRALFLDALGPPAVTREGGDPGVRRLPRRHALGGFTHRGSEPEEEEDVSQAILFPATDASCEDKSAARGLAQEAEEGLFRYMFRPSQHTRSRQVTSAQLWFHTGLDRQGTAASNSSEPLLGLLALSPGGPVAVPMSLGHAPPHWAVLHLATSALSLLTHPVLVLLLRCPLCTCSARPEATPFLVAHTRTRPPSGGEHHHHHHHHHISSRKKRSVSSTPLMSWPWSPSALRLLQRPPEEPAAHANCHRVALNISFQELGWERWIVYPPSFIFHYCHGGCGLHIPPNLSLPVPGAPPTPAQPYSLLPGAQPCCAALPGTMRPLHVRTTSDGGYSFKYETVPNLLTQHCACI
chain 2: DYKDDDDKSPTPGSEGHSAAPDCPSCALAALPKDVPNSQPEMVEAVKKHILNMLHLKKRPDVTQPVPKAALLNAIRKLHVGKVGENGYVEIEDDIGRRAEMNELMEQTSEIITFAESGTARKTLHFEISKEGSDLSVVERAEVWLFLKVPKANRTRTKVTIRLFQQQKHPQGSLDTGEEAEEVGLKGERSELLLSEKVVDARKSTWHVFPVSSSIQRLLDQGKSSLDVRIACEQCQESGASLVLLGKKKKKEEEGEGKKKGGGEGGAGADEEKEQSHRPFLMLQARQSEDHPHISSRKKRSVSSGLECDGKVNICCKKQFFVSFKDIGWNDWIIAPSGYHANYCEGECPSHIAGTSGSSLSFHSTVINHYRMRGHSPFANLKSCCVPTKLRPMSMLYYDDGQNIIKKDIQNAIVEECGCS
In the case of B1, the IC50, decrease in FSH release by primary rat pituitary cells in assay [1] was 0.075 nM. In addition, in assay [2], the IC50, FSH release by LβT2 pituitary gonadotrope cells is 0.045 nM and the potency in FSH release by LβT2 cells, against mature inhibin A is 22 fold.

B2: activin A (M418A), residual in the inhibin A-SCUT (M418A) preparation (ligand)
chain: B1 chain 2
B2 displayed an activin response, activin-responsive luciferase reporter (A3-Luc) in HEK293 cells, against inhibin A-SCUT without M418A with type I receptor (ALK4) of 100 fold lower.

B3: HPLC-purified mature inhibin A (ligand)
chain 1: STPLMSWPWSPSALRLLQRPPEEPAAHANCHRVALNISFQELGWERWIVYPPSFIFHYCHGGCGLHIPPNLSLPVPGAPPTPAQPYSLLPGAQPCCAALPGTMRPLHVRTTSDGGYSFKYETVPNLLTQHCACI
chain 2: GLECDGKVNICCKKQFFVSFKDIGWNDWIIAPSGYHANYCEGECPSHIAGTSGSSLSFHSTVINHYRMRGHSPFANLKSCCVPTKLRPMSMLYYDDGQNIIKKDIQNMIVEECGCS
With B3, the IC50, decrease in FSH release by primary rat pituitary cells in assay [1] is 0.065 nM. In assay [2], this molecule displayed an IC50, FSH release by LβT2 pituitary gonadotrope cells of 1 nM.

B4: mature inhibin A (M418A) (ligand)
chain 1: SVSSTPLMSWPWSPSALRLLQRPPEEPAAHANCHRVALNISFQELGWERWIVYPPSFIFHYCHGGCGLHIPPNLSLPVPGAPPTPAQPYSLLPGAQPCCAALPGTMRPLHVRTTSDGGYSFKYETVPNLLTQHCACI
chain 2: SVSSGLECDGKVNICCKKQFFVSFKDIGWNDWIIAPSGYHANYCEGECPSHIAGTSGSSLSFHSTVINHYRMRGHSPFANLKSCCVPTKLRPMSMLYYDDGQNIIKKDIQNAIVEECGCS
B4 showed a percent of mature inhibin A co-purified with the HIS-tagged prodomain in assay [3] above 90%.

(Values after patent publication US20180273599A1.)
